# Measurements published in patent US20220235344A1, “TRYPSIN VARIANTS WITH IMPROVED ENZYMATIC PROPERTIES” (BIOPHARMA TRANSLATIONSINSTITUT DESSAU FORSCHUNGS GMBH, priority 2018, published 2022).
# Where a chain is given by its changes, count along the chain named. Names may count otherwise.
# B1: Trypsiligase I (trypsin variant K60E/N143H/E151H/D189K) (protein)
# chain: IVGGYTCQENSVPYQVSLNSGYHFCGGSLINDQWVVSAAHCYESRIQVRLGEHNINVLEGNEQFVNAAKIIKHPNFDRKTLNNDIMLIKLSSPVKLNARVATVALPSSCAPAGTQCLISGWGHTLSSGVNHPDLLQCLDAPLLPQADCEASYPGKITDNMVCVGFLEGGKKSCQGDSGGPVVCNGELQGIVSWGYGCALPDNPGVYTKVCNYVDWIQDTIAAN
# B2: Trypsiligase I variant 2G10 (protein)
# chain: B1 chain with H23P, A38S, K79D, L81F, Q174E
# B3: Trypsiligase I variant 1C11 (protein)
# chain: B1 chain with R78V, L81F, S192G, G196S, A198G
# B4: wild-type trypsin: mature anionic rat trypsin II from Rattus norvegicus, SEQ ID NO: 1 (protein)
# chain: B1 chain with E43K, H123N, H131E, K171D
# modifications: Rat anionic trypsin II
# B5: Trypsiligase II variant A2C8 (protein)
# chain: IVGGYTCQENSVPYQVSLNSGHFFCGGSLINDQWVVSAAHCHESRIQVRLGEHNINVLEGNEQFVNAAKIIKHPNFDEDTFNNDIMLIKLSSPVKLNARVATVALPSSCAPAGTQCLISGWGETLSSGVNYPDLLQCLDAPLLPQADCEASYPGKITDNMVCVGFLEGGKKVCAGDSGGPVVCNGELQGIVGWGYQCTLPDNPGVYTKVCNYVDWIQDTIAAN
# Key:
# [1] = target: T1, H-RHAK-OH
# T1 chain: RHAK
# [2] = test system: Bz-AAYRHAAG-OH (acyl donor) / H-RHAK-OH (acyl acceptor); experiment: Model transamidation reaction, Trypsiligase I and improved variants (Example 1); type: biochemical; settings: for kcat, HL^app (mkat/mol) / kcat,AL^app, apparent turnover rate for aminolysis (head is formula image MATH:00001) / product yield (%): 250 μM Bz-AAYRHAAG-OH, 500 μM H-RHAK-OH, 0.1 mM ZnCl2, pH 7.8, 30° C.; for product yield (%): 5-10 μM trypsin variant; for kcat, AL^app/kcat, HL^app: 250 μM acyl donor, 500 μM acyl acceptor, 0.1 mM ZnCl2; for Km: constant acyl donor concentration, varying acyl acceptor concentrations
# Description: Peptide and reaction analytics were performed using a Waters ACQUITY UPLC System equipped with an RP-C18 column (ACQUITY UPLC BEH 130, C18, 1.7 μm, 2.1×100 mm) at flow rates of 0.5 ml/min. The used mobile phases are: water with 0.05% TFA (A) and acetonitrile with 0.05% TFA (B), respectively. For analysis two methods were applied: Method I: linear gradient of 5-40% B in 5 min, detection at 254 nm.
# Quantities of product and educt were calculated from the integrated peak areas.
# The measurements of the product yield and the apparent tumover rates for aminolysis (kcat,AL^app) and hydrolysis (kcat,HL^app) were performed by a model transamidation reaction with the following conditions: 250 μM Bz-[…]-OH (acyl donor), 500 μM H-RHAK-OH (acyl acceptor), 5-10 μM trypsin variant, 100 mM HEPES/NaOH pH 7.8, 0.1 mM ZnCl2, 100 mM NaCl, 10 mM CaCl2, T=30° C. KM values for the acyl acceptor were determined by the measurements of apparent turnover rates for aminolysis at constant acyl donor concentration and varying acyl acceptor concentrations.
# [3] = test system: Bz-AAYRHAAG-OH (acyl donor) / H-RHAK-OH (acyl acceptor); experiment: Model transamidation reaction at low substrate concentration, Trypsiligase I, 2G10, 1C11, hybrid (Example 2); type: biochemical; settings: for product yield (%): 15 μM Bz-AAYRHAAG-OH, 30 μM H-RHAK-OH, 0.5-2.1 μM trypsin variant, 0.1 mM ZnCl2, pH 7.8, 30° C.; for kcat, AL^app (mkat/mol) / kcat, AL^app/kcat, HL^app / kcat, HL^app (mkat/mol): 15 μM acyl donor, 30 μM acyl acceptor, 0.1 mM ZnCl2
# Description: FIG. 1: Time course of product formation for a transamidation reaction catalyzed by Trypsiligase I as well as the improved variants 2G10, 1C11 and the hybrid variant. Reaction conditions: 15 μM Bz-[…]-OH (acyl donor), 30 μM H-RHAK-OH (acyl acceptor), 0.5-2.1 μM trypsin variant, 100 mM HEPES/NaOH pH 7.8, 0.1 mM ZnCl2, 100 mM NaCl, 10 mM CaCl2, T=30° C. UPLC analysis: Waters Acquity Ultra Performance LC, C18-column, gradient 5-40% acetonitrile, 4 min, detection at 254 nm.
# The measurements of the product yield and the apparent tumover rates for aminolysis (kcat,AL^app) and hydrolysis (kcat,HL^app) were performed by a model transamidation reaction with the following conditions: 15 μM Bz-[…]-OH (acyl donor), 30 μM H-RHAK-OH (acyl acceptor), 0.5-2.1 μM trypsin variant, 100 mM HEPES/NaOH pH 7.8, 0.1 mM ZnCl2, 100 mM NaCl, 10 mM CaCl2, T=30° C.
# [4] = test system: Bz PGGXaaXaaXaaHAG-OH / H-XaaXaaXaaAK(DNP)-OH (recognition sequences YRRH, YMKH, RMKH); experiment: Time course of transamidation by A2C8_H39Y/H59Y/E60K/K189D and wild-type trypsin (FIG. 5); type: biochemical; settings: recognition sequences YRRH, YMKH and RMKH; 10 μM variant or 2.5 nM anionic rat trypsin II
# Description: FIG. 5: Time course of the product formation for a transamidation reaction catalyzed by the variant A2C8_H39Y/H59Y/E60K/K189D as well as the wild-type Trypsin in correlation to various peptide substrates. Reaction conditions: 100 μM acyl donor (Bz PGGXaaXaaXaaHAG-OH), 200 μM acyl acceptor (H-XaaXaaXaaAK(DNP)-OH), 10 μM trypsin variant A2C8_H39Y/H59Y/E60K/K189D or 2.5 nM anionic rat trypsin II, 100 mM HEPES/NaOH pH 7.8, 0.1 mM ZnCl2, 100 mM NaCl, 10 mM CaCl2, T=30° C. UPLC analysis: Waters Acquity Ultra Performance LC, C18-column, gradient 5-60% acetonitrile, 5 min, detection at 360 nm.
# The three substrates with the highest apparent turnover rate for the aminolysis reaction were then used for investigating the synthesis behavior of variant A2C8_H39Y/H59Y/E60K/K189D. In FIG. 5 the time course of product formation for a transamidation reaction catalyzed by variant A2C8_H39Y/H59Y/E60K/K189D with various peptide substrates is illustrated.
# [5] = target: T2, H-RAHAK(DNP)-OH
# T2 chain: RAHAK
Molecule,"KM, acyl acceptor (µM); transamidation with Bz-AAYRHAAG-OH as acyl donor, 0.1 mM ZnCl2 [1] [µM]",enzyme kinetic analyses (worded result) [1],affinity for the nucleophilic substrate compared to Trypsiligase I [2],"kcat, HL^app (mkat/mol) [2] [mkat/mol]","kcat,AL^app, apparent turnover rate for aminolysis (head is formula image MATH:00001) [2]",product yield (%) [2] [%],"kcat, AL^app/kcat, HL^app [2]",Km [2] [µM],increase for the ratio of aminolysis to hydrolysis activity (factor) ([2]; versus Trypsiligase I),product yield (%) [3] [%],"kcat, AL^app (mkat/mol) [3] [mkat/mol]","kcat, AL^app/kcat, HL^app [3]","kcat, HL^app (mkat/mol) [3] [mkat/mol]",aminolysis activity lowered by factor ([2]; versus Trypsiligase I),product formation [4],"KM, acyl acceptor (µM); zinc ions (100 µM): no; transamidation with 250 µM Bz-PGGYRAHAG-OH as acyl donor [5] [µM]",fold improvement of KM of the nucleophilic peptide against Trypsiligase II in the absence of zinc ions [5],fold improvement of KM of the nucleophilic peptide against Trypsiligase II in the presence of zinc ions [5]
B1,222,–,–,–,–,–,–,–,–,–,–,–,–,–,–,–,–,–
B2,23,shows a strongly increased affinity for the nucleophilic RH substrate compared to the initial enzyme Trypsiligase I,strongly increased affinity for the nucleophilic RH substrate,2.5,65.1,59.3,26.0,23,6,39.6,16.39,3.3,5.03,–,–,–,–,–
B3,> 5000,An improved affinity for the nucleophile could not be shown for this variant.,An improved affinity for the nucleophile could not be shown,0.3,16.0,60.9,57.0,> 5000,13,53.9,6.24,6.4,0.97,3,–,–,–,–
B4,–,–,–,–,–,–,–,–,–,–,–,–,–,–,Nearly no product formation,–,–,–
B5,–,–,–,–,–,–,–,–,–,–,–,–,–,–,–,17.6,"by a factor of 8 and 92 in the presence or absence of zinc ions, respectively","by a factor of 8 and 92 in the presence or absence of zinc ions, respectively"
